Measurements taken from publication doi:10.1101/2023.03.21.532770 (bioRxiv, 2023).

Biological target: the molecule itself
Assay: crystal structure

B1: mouse 2,4-Dienoyl-CoA reductase 1 (Decr1) (enzyme, UniProt Q9CQ62 35-335, looked up)
chain: SKDAPQSKFFQPVLKPMLPPDAFQGKVAFITGGGTGLGKAMTTFLSTLGAQCVIASRNIDVLKATAEEISSKTGNKVHAIRCDVRDPDMVHNTVLELIKVAGHPDVVINNAAGNFISPSERLTPNGWKTITDIVLNGTAYVTLEIGKQLIKAQKGAAFLAITTIYAESGSGFVMPSSSAKSGVEAMNKSLAAEWGRYGMRFNIIQPGPIKTKGAFSRLDPTGRFEKEMIDRIPCGRLGTMEELANLATFLCSDYASWINGAVIRFDGGEEVFLSGEFNSLKKVTKEEWDIIEGLIRKTKGS
stoichiometry N: 4
